According to PMC6367718 (Cell, 2019):
Positions count from the first letter of the chain named.

T1: TRV055-occupied FLAG-AT1R (human, UniProt P30556)
T1 chain 1: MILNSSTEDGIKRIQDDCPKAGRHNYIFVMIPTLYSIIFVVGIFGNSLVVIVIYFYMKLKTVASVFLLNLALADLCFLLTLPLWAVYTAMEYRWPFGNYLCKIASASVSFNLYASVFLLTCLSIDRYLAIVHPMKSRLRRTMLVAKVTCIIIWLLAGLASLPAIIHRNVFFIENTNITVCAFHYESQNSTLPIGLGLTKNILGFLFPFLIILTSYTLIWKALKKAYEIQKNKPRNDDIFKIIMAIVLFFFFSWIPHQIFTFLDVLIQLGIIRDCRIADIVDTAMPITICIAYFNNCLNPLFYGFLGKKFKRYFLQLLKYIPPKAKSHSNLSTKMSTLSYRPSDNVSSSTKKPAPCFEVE
T1 chain 2: GVYIHPF

B1: Nb.AT110, purified (VHH)
VHH: QVQLQESGGGLVQAGGSLRLSCAASGNIFDADIMGWYRQAPGKERELVASITDGGSTNYADSVKGRFTISRDNAKNTVYLQMNSLKPEDTAVYYCAAIAYPDIPTYFDYDSDYFYWGQGTQVTVSS
B2: Nb.AT110i1, carboxypeptidase A-treated (for crystallography) (VHH)
VHH: B1 VHH with A31V, N58D, I98V, Y113N

How the values were obtained:
[1] = molecular target: T1, TRV055-occupied FLAG-AT1R; experiment: radioligand binding
[2] = molecular target: the molecule itself; experiment: crystal structure

Row | Binder | log EC50 (M) of the change in the log IC50 of TRV055 [1] [log M] | binding result [2]
1 | B1 | -6.6 | 
2 | B2 |  | binds
